This passage reports Kd results from PMC3675359, “GxcC connects Rap and Rac signaling during Dictyostelium development” (BMC Cell Biology, 2013).

The test addresses T1, NtermGxcC (aa 1-633), recombinant GST-ARM purified from E. coli (Dictyostelium discoideum, UniProt Q54P24 1-633).
T1 construct: GxcC, Dictyostelium discoideum, UniProt Q54P24; aa 1-633 as printed, from pGEX4T3; the cloning paragraph says that the N-terminal fragment of base pairs 1-1911 (637 codons) was ligated into pGEX 4T3; also called ARM domain of GxcC; purified GxcC ARM domain; not shown: GST, N-terminal, kept
T1 sequence (looked up): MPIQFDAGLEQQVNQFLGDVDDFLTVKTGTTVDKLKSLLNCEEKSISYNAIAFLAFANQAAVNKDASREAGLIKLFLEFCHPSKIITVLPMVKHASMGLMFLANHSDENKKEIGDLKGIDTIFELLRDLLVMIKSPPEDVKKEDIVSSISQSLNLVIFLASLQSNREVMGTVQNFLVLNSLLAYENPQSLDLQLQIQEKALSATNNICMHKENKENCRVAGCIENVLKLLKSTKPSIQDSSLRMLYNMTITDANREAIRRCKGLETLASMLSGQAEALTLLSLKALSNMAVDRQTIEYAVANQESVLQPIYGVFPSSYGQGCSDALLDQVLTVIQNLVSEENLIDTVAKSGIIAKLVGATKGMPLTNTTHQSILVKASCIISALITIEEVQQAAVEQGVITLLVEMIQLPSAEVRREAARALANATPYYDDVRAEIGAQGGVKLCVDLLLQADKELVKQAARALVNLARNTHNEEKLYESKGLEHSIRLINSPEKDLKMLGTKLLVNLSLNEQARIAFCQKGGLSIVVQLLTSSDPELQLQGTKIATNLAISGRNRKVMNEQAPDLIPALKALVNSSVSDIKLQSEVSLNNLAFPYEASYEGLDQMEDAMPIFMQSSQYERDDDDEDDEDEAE
The test is described as follows: guanine nucleotide dissociation inhibition (GDI) assay; G-protein loaded with mGppNHp incubated with an excess of unlabelled nucleotide; decay of fluorescence (kobs) at varying concentrations of GST-ARM. The settings on record: both partners purified.

B1: RapA purified from E. coli (loaded with mGppNHp or mGDP) (natural protein, Dictyostelium discoideum, UniProt P18613 1-186, looked up)
chain: MPLREFKIVVLGSGGVGKSALTVQFVQGIFVEKYDPTIEDSYRKQVEVDSNQCMLEILDTAGTEQFTAMRDLYMKNGQGFVLVYSIISNSTFNELPDLREQILRVKDCEDVPMVLVGNKCDLHDQRVISTEQGEELARKFGDCYFLEASAKNKVNVEQIFYNLIRQINRKNPVGPPSKAKSKCALL
notes: RapA, Dictyostelium discoideum; Loaded with the fluorescent nucleotide mGppNHp (or mGDP); It may be the GST-RapA of the screen with or without its GST; source: E. coli, purified
The term Kd denotes the equilibrium constant for the complex coming apart. Consider B1, for which the Kd stood at 13.3 µM.
